Laboratory results from the supplement of paper PMC10567573.

B1: ATL3 (parent)
chain: YGLQGGMAFLDKRLQVKEHQHEEI
B2: PBXIP1 (parent)
chain: FGEDGIFRHDRLRFRDFVDALEDS

Variants of: B1
Assay: protein stability index of a GFP-peptide fusion (GPS, HEK-293T) (PSI 1-6); higher = more stable
Conditions: c terminus: a fixed tail appended
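Note: lentivirally expressed fusions sorted by FACS into six bins by GFP to DsRed ratio, PSI derived from sequencing read proportions per bin multiplied by bin number.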

Protein stability index, by site and new letter:
K17: A 1.42, N 3.3, Q 1.55
E18: F 3.53, Q 1.99, C 2.58, Y 2.61, K 3.37, P 2.37
Q4: T 1.89, H 3.46
Y1: C 2.19, M 4.29, P 4.22
D11: T 2.16, W 2.01, K 2.27
F9: M 4.25, G 4.45, T 4.58, V 4.23, H 4.06, A 4.3
L10: F 2.03, K 1.62, V 2.57, D 4.11, H 1.98, A 3.49
L14: P 3.04, N 1.77
G5: Q 2.73, V 2.28, C 1.92
R13: H 2.26, L 2.3, K 2.84, M 2.04, I 1.66, S 1.98, G 1.28, F 2.73
V16: Q 3.13, F 2.5, H 1.91, G 1.77, Y 3.04, S 1.46
I24: N 2.89, K 2.35, T 1.79
Q15: E 1.76, T 2.04, H 2.75, I 2.64, G 2.69, S 3.92, N 1.79, K 2.54
A8: Y 2.68, V 2.42
K12: W 2.44, M 2.89, E 1.99, C 1.49, Y 2.73
E22: D 2.48, I 2.94, V 1.45, S 3.33, G 2.8
L3: P 2.55, Q 2.73, E 2.37, C 2.03, W 3.64
E23: H 2.38, L 2.25
H19: Y 2.76, D 3.38, N 2.6, S 2.01
G2: Y 2.71, S 2.96, W 2.37, K 3.22, I 1.66
H21: C 2.48, Q 2.44, A 2.51, I 3.39
G6: I 2.54, D 2.31, L 3.04, K 2.46
Q20: A 2.87, M 2.35, V 2.99, H 3.12, K 1.85, I 2.56, Y 2.58
M7: L 2.66, A 1.38, G 2.02

Variants of: B2
Assay: as above
Conditions: c terminus: a fixed tail appended

Protein stability index, by site and new letter:
D23: Q 2.82, K 2.23, E 2.61, H 2.34, R 1.98, F 1.92, W 1.84, N 2.94, G 3.02, T 2.55, C 2.21, S 2.22, P 2.35, V 2.29, Y 2.62, L 2.42, A 2.22, I 1.93, M 2.32
F17: D 3.68, R 3.69, P 3.44, G 3.57, V 3.38, S 3.69, I 3.19, E 3.98, C 3.12, Q 3.58, W 2.79, K 3.09, A 3.46, Y 2.97, L 2.77, N 3.55, H 3.25, T 3.61, M 3.38
F14: D 3.84, V 3.05, C 1.99, T 3.62, E 3.86, Y 2.57, S 3.81, K 3.38, Q 3.46, L 2.96, P 3.01, W 2.2, M 3.23, G 3.67, H 2.87, R 3.37, I 2.86, N 3.71, A 3.43
R13: S 2.92, K 2.85, T 3.26, Y 2.32, E 4.02, G 2.9, A 3.13, F 2.25, L 2.71, M 2.79, N 3.56, I 2.26, W 1.99, Q 3.74, D 3.29, P 3.35, C 2.73, H 2.57, V 2.72
S24: C 3.48, A 2.21, E 2.24, Q 2.74, N 3.15, Y 1.78, K 3.08, W 1.93, D 3.5, P 2.51, R 2.76, I 2.29, F 1.8, T 2.85, V 2.43, M 2.2, L 2.32, G 2.32, H 2.66
E22: P 2.81, C 1.93, F 1.65, Q 2.24, A 2, W 1.97, D 2.26, I 1.76, R 2.38, G 2.05, T 2.08, V 2.2, K 2.08, H 2.37, Y 2.11, S 2.71, M 1.89, N 2.56, L 2.97
A20: M 2.13, W 2.46, Q 2.95, L 2.09, C 3.05, Y 2.11, N 2.78, P 3.06, H 2.42, D 3.23, I 2.28, T 2.21, S 3.18, V 2.49, G 3.41, F 2.38, R 3.01, E 3.25, K 3.6
D16: L 1.55, E 3.17, Q 2.42, N 1.89, P 2.27, Y 1.88, W 1.85, S 2.23, R 2.36, T 2.08, H 2.09, F 2.12, G 1.97, K 1.99, A 2.41, I 2.06, C 3.01, M 1.78, V 2.43
L21: A 3.32, Y 3.18, G 2.97, S 3.24, H 3, W 2.57, F 2.73, K 3.3, T 3.13, V 2.94, N 3.73, P 3.65, E 3.67, I 3.07, D 3.68, M 3.12, C 3.48, Q 3.57, R 3.01
R15: M 2.54, E 3.61, I 2.23, F 2.68, T 2.44, W 1.97, D 2.87, L 2.48, Y 2.22, C 2.79, N 3.38, A 2.38, H 2.48, G 3.41, V 2.02, K 2.9, P 3.36, Q 3.06, S 2.54
L12: Y 2.71
V18: K 3.13, Y 2.4, S 3.11, N 3.14, C 3.3, P 2.94, R 3.05, W 2.07, F 2.45, A 2.73, H 2.53, G 3.16, D 3.1, M 2.87, E 3.5, Q 3.49, L 3.32, T 3.27, I 2.17
D19: W 2.18, G 2.37, E 2.6, Y 2.35, V 1.91, Q 2.49, H 2.9, F 2.22, P 2.53, C 2.47, L 1.61, T 2.61, I 1.91, R 2.48, M 2.56, A 2.59, N 2.65, K 2.9, S 2.4
